According to publication doi:10.1101/431494:

How the values were obtained:
[1] = target: Haliangium ochraceum encapsulated ferritin, residues 1-98, C-terminal hexa-histidine tagged variant (Haliangium ochraceum) (UniProt D0LZ73); experiment: SDS-PAGE
[2] = target: Haliangium ochraceum encapsulated ferritin as crystallised (PDB 5N5F) (Haliangium ochraceum) (UniProt D0LZ73); experiment: crystal structure

| stoichiometry N [1] | stoichiometry N [2] | Substance |
| --- | --- | --- |
| 2 | – | Haliangium ochraceum encapsulated ferritin, residues 1-98, C-terminal hexa-histidine tagged variant (from UniProt D0LZ73 1-98) (domain or fragment) |
| – | 10 | Haliangium ochraceum encapsulated ferritin as crystallised (PDB 5N5F) (from UniProt D0LZ73 1-98) (domain or fragment) |
